Results published in US20210388087A1 (Chugai, published 2021).
Where a chain is given by its changes, count along the chain named. Numbers in names are those of the source.

B1: H183/L072 VH F27A (antibody, name in Kabat numbering, V domains shown)
VH: QVQLVESGGGLVQPGRSLRLSCAASGATFSNAWMHWVRQAPGKGLEWVAQIKDKGNAYAAYYAPSVKGRFTISRDDSKNSIYLQMNSLKTEDTAVYYCHYVHYASASTVLPAFGVDAWGQGTTVTVSS
VL: DIVMTQSPLSLPVTPGEPASISCQASQELVHMNRNTYLHWYQQKPGQAPRLLIYKVSNRFPGVPDRFSGSGSGTDFTLKISRVEAEDVGVYYCAQGTSVPFTFGQGTKLEIK
B2: H183/L072 VH A54Y (antibody, name in Kabat numbering, V domains shown)
VH: B1 VH with A27F, A57Y
VL: B1 VL
B3: H183/L072 VH A56I (antibody, name in Kabat numbering, V domains shown)
VH: B1 VH with A27F, A59I
VL: B1 VL
B4: H183/L072 VH A54I (antibody, name in Kabat numbering, V domains shown)
VH: B1 VH with A27F, A57I
VL: B1 VL
B5: H183/L072 VH A56G (antibody, name in Kabat numbering, V domains shown)
VH: B1 VH with A27F, A59G
VL: B1 VL
B6: H183/L072 VH A54E (antibody, name in Kabat numbering, V domains shown)
VH: B1 VH with A27F, A57E
VL: B1 VL
B7: H183/L072 VH A32G (antibody, name in Kabat numbering, V domains shown)
VH: B1 VH with A27F, A32G
VL: B1 VL
B8: H183/L072 VH A32I (antibody, name in Kabat numbering, V domains shown)
VH: B1 VH with A27F, A32I
VL: B1 VL
B9: H183/L072 VH A54M (antibody, name in Kabat numbering, V domains shown)
VH: B1 VH with A27F, A57M
VL: B1 VL
B10: H183/L072 VH A56H (antibody, name in Kabat numbering, V domains shown)
VH: B1 VH with A27F, A59H
VL: B1 VL
B11: H183/L072 VH A32Y (antibody, name in Kabat numbering, V domains shown)
VH: B1 VH with A27F, A32Y
VL: B1 VL
B12: H183/L072 VH A56E (antibody, name in Kabat numbering, V domains shown)
VH: B1 VH with A27F, A59E
VL: B1 VL
B13: H183/L072 VH A56K (antibody, name in Kabat numbering, V domains shown)
VH: B1 VH with A27F, A59K
VL: B1 VL
B14: H183/L072 VH A54H (antibody, name in Kabat numbering, V domains shown)
VH: B1 VH with A27F, A57H
VL: B1 VL
B15: H183/L072 VH A54S (antibody, name in Kabat numbering, V domains shown)
VH: B1 VH with A27F, A57S
VL: B1 VL
B16: H183/L072 VH A54Q (antibody, name in Kabat numbering, V domains shown)
VH: B1 VH with A27F, A57Q
VL: B1 VL
B17: H183/L072 VH A56L (antibody, name in Kabat numbering, V domains shown)
VH: B1 VH with A27F, A59L
VL: B1 VL
B18: H183/L072 VH A54R (antibody, name in Kabat numbering, V domains shown)
VH: B1 VH with A27F, A57R
VL: B1 VL
B19: H183/L072 VH A32T (antibody, name in Kabat numbering, V domains shown)
VH: B1 VH with A27F, A32T
VL: B1 VL
B20: H183/L072 VH A56M (antibody, name in Kabat numbering, V domains shown)
VH: B1 VH with A27F, A59M
VL: B1 VL
B21: H183/L072 VH A32L (antibody, name in Kabat numbering, V domains shown)
VH: B1 VH with A27F, A32L
VL: B1 VL
B22: H183/L072 VH A54L (antibody, name in Kabat numbering, V domains shown)
VH: B1 VH with A27F, A57L
VL: B1 VL
B23: H183/L072 VH A32N (antibody, name in Kabat numbering, V domains shown)
VH: B1 VH with A27F, A32N
VL: B1 VL
B24: H183/L072 VH A32Q (antibody, name in Kabat numbering, V domains shown)
VH: B1 VH with A27F, A32Q
VL: B1 VL
B25: H183/L072 VH A54W (antibody, name in Kabat numbering, V domains shown)
VH: B1 VH with A27F, A57W
VL: B1 VL
B26: H183/L072 VH A32R (antibody, name in Kabat numbering, V domains shown)
VH: B1 VH with A27F, A32R
VL: B1 VL
B27: H183/L072 VH A54K (antibody, name in Kabat numbering, V domains shown)
VH: B1 VH with A27F, A57K
VL: B1 VL
B28: H183/L072 VH A54V (antibody, name in Kabat numbering, V domains shown)
VH: B1 VH with A27F, A57V
VL: B1 VL
B29: H183/L072 VH A32M (antibody, name in Kabat numbering, V domains shown)
VH: B1 VH with A27F, A32M
VL: B1 VL
B30: H183/L072 VH A54N (antibody, name in Kabat numbering, V domains shown)
VH: B1 VH with A27F, A57N
VL: B1 VL
B31: H183/L072 VH A32H (antibody, name in Kabat numbering, V domains shown)
VH: B1 VH with A27F, A32H
VL: B1 VL
B32: H183/L072 VH A32S (antibody, name in Kabat numbering, V domains shown)
VH: B1 VH with A27F, A32S
VL: B1 VL
B33: H183/L072 VH A54T (antibody, name in Kabat numbering, V domains shown)
VH: B1 VH with A27F, A57T
VL: B1 VL
B34: H183/L072 VH A56P (antibody, name in Kabat numbering, V domains shown)
VH: B1 VH with A27F, A59P
VL: B1 VL
B35: H183/L072 VH A32K (antibody, name in Kabat numbering, V domains shown)
VH: B1 VH with A27F, A32K
VL: B1 VL
B36: H183/L072 VH A32V (antibody, name in Kabat numbering, V domains shown)
VH: B1 VH with A27F, A32V
VL: B1 VL
B37: H183/L072 VH A56N (antibody, name in Kabat numbering, V domains shown)
VH: B1 VH with A27F, A59N
VL: B1 VL
B38: H183/L072 VH A32E (antibody, name in Kabat numbering, V domains shown)
VH: B1 VH with A27F, A32E
VL: B1 VL
B39: H183/L072 VH A32F (antibody, name in Kabat numbering, V domains shown)
VH: B1 VH with A27F, A32F
VL: B1 VL
B40: H183/L072 VH A54D (antibody, name in Kabat numbering, V domains shown)
VH: B1 VH with A27F, A57D
VL: B1 VL
B41: H183/L072 VH A54F (antibody, name in Kabat numbering, V domains shown)
VH: B1 VH with A27F, A57F
VL: B1 VL
B42: H183/L072 VH A56D (antibody, name in Kabat numbering, V domains shown)
VH: B1 VH with A27F, A59D
VL: B1 VL
B43: H183/L072 VL Y32T (antibody, name in Kabat numbering, V domains shown)
VH: B1 VH with A27F
VL: B1 VL with Y37T
B44: H183/L072 VL Y32Q (antibody, name in Kabat numbering, V domains shown)
VH: B1 VH with A27F
VL: B1 VL with Y37Q
B45: H183/L072 VL Y32S (antibody, name in Kabat numbering, V domains shown)
VH: B1 VH with A27F
VL: B1 VL with Y37S

Each binder was assayed against T1, Human CD137 ECD (human) (assay: single mutant vs template dBBDu183H).
T1 construct: also called 4-1BB
T1 sequence (chain, as listed by the source limits assumed): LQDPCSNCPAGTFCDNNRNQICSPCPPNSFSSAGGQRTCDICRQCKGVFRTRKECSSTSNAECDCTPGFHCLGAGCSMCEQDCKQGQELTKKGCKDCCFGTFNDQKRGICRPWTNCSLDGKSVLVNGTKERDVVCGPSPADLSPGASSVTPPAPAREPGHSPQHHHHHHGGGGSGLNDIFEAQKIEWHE
With B1 the “fold change of affinity” value was 0.3 fold.
B2 was tested, and the “fold change of affinity” value was 0.9 fold.
In the case of B3, the “fold change of affinity” value is reported as 0.2 fold.
With B4 the “fold change of affinity” value was 0.5 fold.
With B5 the “fold change of affinity” value was 0.6 fold.
For B6, the “fold change of affinity” value was 1 fold.
For B7, the “fold change of affinity” value was 0.1 fold.
In the case of B8, the “fold change of affinity” value is reported as 2.2 fold.
With B9 the “fold change of affinity” value was 1 fold.
With B10 the “fold change of affinity” value was 0.6 fold.
With B11 the “fold change of affinity” value was 0 fold.
In the case of B12, the “fold change of affinity” value is reported as 0.5 fold.
B13 was tested, and the “fold change of affinity” value was 0.8 fold.
With B14 the “fold change of affinity” value was 1 fold.
B15 was tested, and the “fold change of affinity” value was 0.9 fold.
B16 was tested, and the “fold change of affinity” value was 1 fold.
In the case of B17, the “fold change of affinity” value is reported as 0.5 fold.
For B18, the “fold change of affinity” value was 0.9 fold.
B19 was tested, and the “fold change of affinity” value was 3.9 fold.
B20 was tested, and the “fold change of affinity” value was 0.7 fold.
For B21, the “fold change of affinity” value was 1.2 fold.
In the case of B22, the “fold change of affinity” value is reported as 1 fold.
In the case of B23, the “fold change of affinity” value is reported as 0.3 fold.
In the case of B24, the “fold change of affinity” value is reported as 1.6 fold.
For B25, the “fold change of affinity” value was 0.8 fold.
With B26 the “fold change of affinity” value was 0.3 fold.
B27 was tested, and the “fold change of affinity” value was 0.9 fold.
B28 was tested, and the “fold change of affinity” value was 0.5 fold.
In the case of B29, the “fold change of affinity” value is reported as 1.6 fold.
B30 was tested, and the “fold change of affinity” value was 1.1 fold.
With B31 the “fold change of affinity” value was 0.2 fold.
B32 was tested, and the “fold change of affinity” value was 0.9 fold.
B33 was tested, and the “fold change of affinity” value was 0.3 fold.
With B34 the “fold change of affinity” value was 0.2 fold.
With B35 the “fold change of affinity” value was 1 fold.
In the case of B36, the “fold change of affinity” value is reported as 3.7 fold.
B37 was tested, and the “fold change of affinity” value was 0.7 fold.
With B38 the “fold change of affinity” value was 0.4 fold.
With B39 the “fold change of affinity” value was 0.1 fold.
With B40 the “fold change of affinity” value was 1.1 fold.
In the case of B41, the “fold change of affinity” value is reported as 0.9 fold.
With B42 the “fold change of affinity” value was 0.3 fold.

Target: T2, Human CD3eg linker (human)
T2 construct: Single-chain construct; also called recombinant human CD3
T2 chain: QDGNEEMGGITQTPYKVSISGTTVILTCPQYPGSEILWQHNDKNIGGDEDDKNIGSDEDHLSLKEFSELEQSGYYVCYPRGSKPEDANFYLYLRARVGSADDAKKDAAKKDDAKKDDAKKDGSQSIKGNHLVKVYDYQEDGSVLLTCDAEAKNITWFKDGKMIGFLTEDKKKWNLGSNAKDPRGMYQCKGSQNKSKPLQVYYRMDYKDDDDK
Assay: SPR; fold vs parent H183/L072
With B43 the “fold change of affinity” value was 0 fold.
With B44 the “fold change of affinity” value was 0 fold.
In the case of B45, the “fold change of affinity” value is reported as 0 fold.
